In the nanobody polyreactivity screen of Harvey et al. (2022):

Experiment: yeast display, Sf9 membrane polyspecificity reagent, FACS + sequencing; frameworks hold sequencing errors
Summary of the method: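 Polyreactivity labels are assigned by the sorting gate from which each nanobody was recovered. The gates were low and high (top ~1%), set on anti-HA fluorescence for expression and streptavidin fluorescence for reagent binding. Before sorting, galactose-induced (36–48 hours) yeast display cells were stained for 1 hour at 4 °C with 10% biotinylated, detergent-solubilized Sf9 membrane reagent.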

Sequence | polyreactivity (PSR sort gate)
QVQLVESGGGLVQAGGSLRLSCAASGFTFSPNAMGWYRQAPGKERELVAAIDWSGDRTYSADSVKGRFTISRDNAKNTVYLQMNSLKPEDTAVYYCNVVRRSPGDYSYFYWGQGTQVTVSS | low polyreactivity
QVKLVESGGGLVQSGGSLRLRCAASGSTITGYAMGWYRQAPRKERDLVAAITYTGTSTYYADTVKGRYTISRDNAKNTVYLEMNSLNPEDTAVYYCAARLAWWKTYIRYYYWGKGTQVTVSS | high polyreactivity
QVQLVESGGGLVQAGGSLRLSCAASGRIFDPYAMGWYRQAPGKEREVVASISWSGGRTYYADSVKGRFTISRDNAKNTVYLQMNSLKPEDTAVYYCAARQWYRYKVRIDYWGQGTQVTVSS | high polyreactivity
QVQLVESGGGLVQAGGSLRLSCAASGRIFVSNAMGWYRQAPGKERELVAAISSSGGSTYYADSVKGRFTISRDNAKNTVYLQMNSLKPEDTAVYYCNVLGQRYYPSGRNYWGQGTQVTVSS | high polyreactivity
QVQIVESGGGLVQAGGSLRLSCAASGRIFYRYDMGWYRQAPGKERELVAVISGGGTYYADSVKGRFTISRDNAKNTVYLQMNSLKPEDTAVYYCAADDGVSLVSPYYGGYDYWGQGTQVTVSS | low polyreactivity
QVQLVESGGGLVQAGGSLRLSCAASGRIFYRNTMGWYRQAPGKERELVAAITWRAGRTYYADSVKGRFTISRDNAKNTVYLQMNSLKPEDTAVYYCNADRTAPERYSRVPSSDSWGQGTQVTVSS | high polyreactivity
QVQLVESGGGLVQAGGSLRLSCAATGSTFRPYAMGWYRQAPGKERELVAAITTGGSTNYADSVKGRFTISRDNAKNTVYLQMNSLKPEDTAVYYCNADYDVLNWGYYDWGYDYWGQGTQVTVSS | low polyreactivity
QVQLVESGGGLVQAGGSLRLSWAASGSTLLSNAMGWSTQAPGKERELVAAINYSGGRTYYADSVKGRFTISRDHAQNTVYLQMNSLKPEDTAVYYCNALSSGHGSSSRYDYWGQGTQVTVSS | low polyreactivity
QVQLVESGGGLVQAGGSLRLSCAASGSTLGYYVMGWYRQAPGKERELVAAITGGGSTDYADSVKGRFTISRDNEKNTVYLQMNSLKPEDTAVYYCAAERTRTGQLFWWGPIYDYWGQGTQVTVSS | low polyreactivity
QDQLVESGGGLVQARGSLRLSCAASGRIIKTNAMGWYRQAPGKERELVAAISSSGGRTYYADSVKGRFTISRDNAKNTVYLQMNSLKPEDTAVYYCAAPSLVSFGYWGQGTQVTVSS | high polyreactivity
QVQLVESGGGLVQAGGSLRLSCAASGSIFFSYAMGWYRQAPGKERELVASISSGVSTNYADSEKGRFTISRDNAKNTVYLQMNSLKPEDTAVYYFAAYYRGWSSSYWYPAYNYWGQGTQVTVSS | low polyreactivity
QVQLQESGGGLVQAGGSLRLSCAASGSIFDGFYMGWYRQAPGKEREFVAAISYGASTYYADSVKGRFTVSRDNAKNSVYLQMNSLKPEDTAVYYCAVYDELYHVLVYWGRGTQVTVSS | low polyreactivity
QVQLVESGGGLVQAGGSLRLSCAASGRISWGYAMGWYRPAPGKERELVAVINFNGGRTYYADSVKGRFTISRDNAKNTVYLQMNSLKPEDTAVYYCAADSGYEYDYWGQGTQVTVSS | low polyreactivity
QVQLVESGGGLVQAGGSLRLSCSASGLTFYGYVMGWYRQAPGKERELVASISRSGRRTYYADSVKGRFTISRDNAKNTVYLQMNSLKPEDTAVYYCAAADHVGQEDDYWGLGTQVTVSS | low polyreactivity
QVQLVESGGGLVQAGGSLRLSCAASGFTFGWYAMGWYRQAPGKDWEFVAAISRSGGSTYYADSVKGRFTISRDNAKNTVYLQMNSLKPEDTAVYYCAAYIIGDTHAEYDYWGQGTQVTVSS | high polyreactivity
QVQLVESGGGLVQAGGSLRLSCAASGRTFTGYNMGWYRQEPGKEREFVAAISSNGGRTYYADSVKGRFTISRDNAKNTVYLQMNSLKPEDTAVYYCAAPFTFWGQGTQVTVSS | high polyreactivity

Sequence | polyreactivity (PSR sort gate)
QVQLVESAGGLVQAGGSLRLSCAASGITFWYYTMGWYRQAPGKERELVAAINGRGGSTYYADSVKGRFTISRDNAKNTVYLQMNSLKPEDTAVYYCNAVGIWFQIRLIVPYDYWGQGTQVTVSS | low polyreactivity
QVQIVESGGGLVQAGGSLRVTCAASGSIFPPKAMGWYRQAPGKERELLADISGSGRTYYADSVKGRFTISRDNAKNTVYLQMNSLNPEDTAVYYCAARQQRRPTTRVFGYWGQGTQVTVSS | high polyreactivity
QVQLVESGGGLVQAGGSLRLSCAASGRTFVNNAMGWYRQAPGKERELVAAISRSGGSTYYADSVKGRFTISRDNAKNTVYLQMNSLKPEDTAVYYCNKASNVRGYEYWGQGTQVTVSS | high polyreactivity
QVQLVESGGGLVQAGGSLRLSCAVRRTLSFYAMGWYRQAPGKERELVATISRSGGSTYYADSVKGRFTISRDNAKNTVYLQMNSLKPEDTAVYYCAVRWKAHYWGPIYYYWGQGTQVTVSS | high polyreactivity
QVQHVESGGGLVQAGGSLRLSCAASGSTFAINAMGGYRQAPGKERELVAAISSSGSTNYADSVKGRFTISRDNAKNTVYLQMNSLKPEDTAVSYCAADRVWGTPQAYVPSQFDYWGQGTQVTVSS | low polyreactivity
QVQLVESGGGLVQAGGSLRLSCAASGFIFLSYAMGRYRQAPGKERELVAAISGRGGSTYYADSVKGRFTISRDNAKNTVYLQMNSLKPEDTAVYYCAVRRYRFPPGDYWGQGTQVTVSS | high polyreactivity
QGQLVESGGGLVQAGGSLRLSCAASGGIFIFYAMGWYRQAPGKERELVAAISNVSSTNYADSVKGRFTISRDNAKNTVYLQMNSLKPEDTAVYYCNAVGVPSEYYSWGQGTQVTVSS | low polyreactivity
QVQLVESGGGLVQARGSLRLSCAASGLTFRRNTMGWYRQAPGKERELVATITSGGSTNYADSVKGRFTISRDNAKNTVYLQMISLKPEDTAVYYCAARTTYITNWVYRHTYTYYYWGQGTQVTVSS | high polyreactivity
QVQLVESGGGLVQAGGSLRLSCAASGRTFGRYAMGWYRQAPGKERELLARISYSGGSTYYADSVKGRFTISRDNAKNTDYLQMNSLKPEDTAVYYCAASFFGRFDPDRSYWGQGTQVTVSS | high polyreactivity
QVQLVESGGGLDQAGGSLRLSCAASGRTFKPYAMGWYRQAPGKERELVARISGSGGSTYYADSVKGRFSISRDNAKNTVYLQMNSLKPEDTAVYYCATTPYYWFDYWGQGTQVTVSS | low polyreactivity
QVQLEESGGGLVQAGGSLRLSCAASGRIFAYYAMGLYRQAPGKERELVAAITTNGGGTYYADSVKGRFTISRDNAKNTVYLQMNSLKPEDTAVYYCNAVKQRSSFYDYWGQGTQVTVSS | low polyreactivity
QVQLVESGGGLVQAGGSLRLSCAASGFTLFYNAMGWYRQAPGKERELVAAITARGGGTYYADSVKGRFTISRDNAKNTVYLQMNSLKPEDTAVYYCNAGQNQRVDRTDPYDYWGQGTQVTVSS | low polyreactivity
QVQLVESGGGLVQAGGSLRLSCAASGGTFSSNAMGWYRQAPGKERELVAAIRSTGRTYYADSVKGRFTISRDNAKNTVYLQMNSLKPEDTAVYYCAADLGRTPTGKIGFDYWGQGTQVTVSS | high polyreactivity
QVQLVESGGGLVQAGGSLRLSCAASGGTFGSYAMGWSRPAPGKERELVAAIDYSGADTYYADSVKGRFTISRDNAKNTVYLQMNSLKPEDTAVYYCNAEFESGHDLDWYDYWGQGTQVTVSS | low polyreactivity
QVQLVESGGGLVQAGGSLRLSCPASGFTFYRYAMGWYRQAPGKERELVASISWRGGNTYYADSVKGRFTISRDNEKNTVYLQMNSLKPEDTAVYYCAARGGVLKGYYYWGQGTQVTVSS | high polyreactivity
QVQLVESGGGLDQAGGSLRLSCAASGIIFLSYAMGRYRQAPGKERELVAAIRSRGDSTYYADSVKGRFTNSRDNAKNTVYLQMNSLKPEDTAVYYCNARQRRYPYGYWGQGTQVTVSS | high polyreactivity
